The source of these data is article PMC11838735, “Structural basis of collagen glucosyltransferase function and its serendipitous role in kojibiose synthesis” (Research Square, 2025).

The target in series [1] is human PLOD2b GLT-AC truncation (PLOD2b-GA) (human). Put plainly: SEC-MALS; the paper calls it SEC-DLS (size exclusion chromatography with dynamic light scattering); Superdex 200 10/300, miniDAWN TREOS and Optilab T-rEX detectors, 20 mM Tris pH 8, 200 mM NaCl, 3 mg ml^-1, 150 μl injected, 0.5 ml min^-1; molar mass across the peak; each protein analyzed once.
Series [2] deals with the molecule itself. The description is as above.

In series [1], “human PLOD2b GLT-AC truncation (PLOD2b-GA) (domain or fragment)” displayed a stoichiometry N of 2.

B1: mimiviral collagen glucosyltransferase R699, wild type (pET28 construct) (enzyme)
chain: EQSNNDDNLLVLGIGISVHKTDGVLRFEKYCQAHNLQYMIVGEGKKWNGGNLESEAGGGQKINELLIALESIKDNKLIVVCDTYDLIPLSGPEEILRKYRFLTPDNKVVFSSELYCWPDASLVERYPKVDTKYKYLNSGAFMGYRDDIYEMIKNGVKDRDDDQLFFSIKFIETDKIVLDYKCELFQAMYRCNSDLVVHKNRIFNGYTNSYPVFAHGNGPAKKLLNHMEGYFMTEPIDGSSNTINTFKLDNEPKVFFALYVDSNDLSALKQFLGKVASIQYGNKVIYLYDRSDNEQNRKLIQISYPNYHTGVTKYVFDDFKKSDAQFYFLLEQNCIITKKDILHELIMQVKDNHRVISPMIGYEQNSTRTNFWGDIEDGYYKRSENYLDLAKHKVRGLWNVPYVYGVILMHESVVRNWDLSMVKYNDKDMDLCFSLRKHTIFMYMINNNNYGYMV
notes: R699 protein of Acanthamoeba polyphaga mimivirus, collagen galactosylhydroxylysyl glucosyltransferase; gene synthesized by Genscript; The vector has a PreScission site in place of the thrombin site, and no cleavage is described for this construct; also called R699WT; mimiviral R699
Regarding B1, the “stoichiometry N” value in series [2] amounted to 2.
